Data published in article PMC3552960, “Constitutively Active CCR5 Chemokine Receptors Differ in Mediating HIV Envelope-dependent Fusion” (PLoS ONE, 2013).

Assays:
Assay in all cases: radioligand binding
Details in all cases: one partner purified
[1] = target: T1, CCR5 Thr^2.56(82)Pro mutant receptor (human, UniProt P51681 1-352, Thr^2.56(82)Pro)
T1 construct: also called T^2.69(82)P; source: HOS-CD4-Luc, transiently transfected, on cells (fusion)
T1 sequence: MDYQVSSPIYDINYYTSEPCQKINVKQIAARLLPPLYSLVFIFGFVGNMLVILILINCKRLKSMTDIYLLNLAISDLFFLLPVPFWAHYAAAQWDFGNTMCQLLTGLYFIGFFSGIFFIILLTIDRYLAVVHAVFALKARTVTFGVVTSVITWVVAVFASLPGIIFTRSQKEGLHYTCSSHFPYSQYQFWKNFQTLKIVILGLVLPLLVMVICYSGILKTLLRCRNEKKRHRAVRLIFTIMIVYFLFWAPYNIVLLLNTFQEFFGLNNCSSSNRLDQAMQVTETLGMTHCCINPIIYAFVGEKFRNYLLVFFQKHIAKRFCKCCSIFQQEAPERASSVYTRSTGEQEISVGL

[2] = target: T2, wild type human CCR5 chemokine receptor (human, UniProt P51681 1-352)
T2 construct: source: HOS-CD4-Luc, transiently transfected, on cells (fusion)

[3] = target: T3, CCR5 Thr^2.56(82)Pro/Arg^6.32(225)Gln double-mutant receptor (human, UniProt P51681 1-352, Thr^2.56(82)Pro | Arg^6.32(225)Gln)
T3 construct: also called T^2.56(82)P/R^6.32(225)Q; T^2.69(82)P/R^6.32(225)Q; source: HOS-CD4-Luc, transiently transfected, on cells (fusion)
T3 sequence: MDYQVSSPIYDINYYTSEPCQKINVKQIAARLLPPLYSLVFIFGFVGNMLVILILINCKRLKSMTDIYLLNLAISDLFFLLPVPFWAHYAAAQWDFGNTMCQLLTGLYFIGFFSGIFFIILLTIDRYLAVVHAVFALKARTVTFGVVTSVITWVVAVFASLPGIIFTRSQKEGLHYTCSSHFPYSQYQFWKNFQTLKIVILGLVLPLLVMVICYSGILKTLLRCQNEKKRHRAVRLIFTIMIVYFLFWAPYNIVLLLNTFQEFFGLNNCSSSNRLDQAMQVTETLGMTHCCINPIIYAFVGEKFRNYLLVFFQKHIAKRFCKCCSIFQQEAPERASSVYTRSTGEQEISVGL

[4] = target: T4, CCR5 Thr^2.56(82)Lys/Arg^6.32(225)Gln double-mutant receptor (human, UniProt P51681 1-352, Thr^2.56(82)Lys | Arg^6.32(225)Gln)
T4 construct: also called T^2.56(82)K/R^6.32(225)Q; T^2.69(82)K/R^6.32(225)Q; source: HOS-CD4-Luc, transiently transfected, on cells (fusion)
T4 sequence: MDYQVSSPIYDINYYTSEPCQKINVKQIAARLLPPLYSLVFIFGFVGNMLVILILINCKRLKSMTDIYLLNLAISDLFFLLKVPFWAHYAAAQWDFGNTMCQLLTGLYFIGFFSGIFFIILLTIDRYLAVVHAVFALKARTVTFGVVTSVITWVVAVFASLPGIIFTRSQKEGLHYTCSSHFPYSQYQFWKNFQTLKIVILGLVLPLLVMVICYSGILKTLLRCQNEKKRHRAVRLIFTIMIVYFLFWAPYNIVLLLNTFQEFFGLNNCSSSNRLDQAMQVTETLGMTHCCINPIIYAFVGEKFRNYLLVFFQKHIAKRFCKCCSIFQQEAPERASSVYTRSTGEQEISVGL

B1: macrophage inflammatory protein 1β (MIP-1β, CCL4), recombinant human, unlabelled (ligand)
chain: APMGSDPPTACCFSYTARKLPRNFVVDYYETSSLCSQPAVVFQTKRSKQVCADPSESWVQEYVYDLELN
notes: also called unlabelled MIP-1β; source: bought: Peprotec (Rocky Hill, NJ)
B1 gave an IC50 [1] of 31.9 nM, an IC50 [2] of 32.6 nM and an IC50 [3] of 30.6 nM. It also gave an IC50 [4] of 20.7 nM.
